The values below come from publication PMC10567733, “C9orf72-catalyzed GTP loading of Rab39A enables HOPS-mediated membrane tethering and fusion in mammalian autophagy” (Nature Communications, 2023).

The target of one test is T1, Myc-C9orf72 (human, UniProt Q96LT7 1-481).
T1 construct: C9orf72, human, cloned from human cDNA; source: E. coli BL21 (DE3), purified (Glutathione Sepharose, eluted by TEV cleavage or GSH); not shown: Myc, N-terminal, kept
T1 sequence (looked up): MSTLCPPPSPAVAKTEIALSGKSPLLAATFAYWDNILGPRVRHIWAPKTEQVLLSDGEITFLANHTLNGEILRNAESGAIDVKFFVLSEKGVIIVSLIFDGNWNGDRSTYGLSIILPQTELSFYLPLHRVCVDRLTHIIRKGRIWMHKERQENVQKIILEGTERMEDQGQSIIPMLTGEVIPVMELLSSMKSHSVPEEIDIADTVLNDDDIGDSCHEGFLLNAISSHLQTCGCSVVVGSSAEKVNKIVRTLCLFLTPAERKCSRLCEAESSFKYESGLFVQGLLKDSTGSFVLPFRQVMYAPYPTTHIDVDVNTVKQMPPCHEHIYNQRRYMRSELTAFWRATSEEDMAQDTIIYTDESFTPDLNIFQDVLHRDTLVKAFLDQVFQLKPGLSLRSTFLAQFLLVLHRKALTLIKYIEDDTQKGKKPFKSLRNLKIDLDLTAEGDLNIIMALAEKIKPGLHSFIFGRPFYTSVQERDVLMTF
Kind of test: pull-down; Glutathione Sepharose beads bound with GST, GST-Rab39A or GST-Rab39B, incubated with the purified protein for one hour, washed, boiled, immunoblot. Conditions: both partners purified. For orientation: A western blot detects proteins with antibodies after separation by electrophoresis.

Another test concerns the target T2, VPS41-Flag (human, UniProt P49754 1-854).
T2 construct: VPS41, human, cloned from human cDNA (293T cells); also called V41; not shown: Flag, C-terminal, kept
T2 sequence (looked up): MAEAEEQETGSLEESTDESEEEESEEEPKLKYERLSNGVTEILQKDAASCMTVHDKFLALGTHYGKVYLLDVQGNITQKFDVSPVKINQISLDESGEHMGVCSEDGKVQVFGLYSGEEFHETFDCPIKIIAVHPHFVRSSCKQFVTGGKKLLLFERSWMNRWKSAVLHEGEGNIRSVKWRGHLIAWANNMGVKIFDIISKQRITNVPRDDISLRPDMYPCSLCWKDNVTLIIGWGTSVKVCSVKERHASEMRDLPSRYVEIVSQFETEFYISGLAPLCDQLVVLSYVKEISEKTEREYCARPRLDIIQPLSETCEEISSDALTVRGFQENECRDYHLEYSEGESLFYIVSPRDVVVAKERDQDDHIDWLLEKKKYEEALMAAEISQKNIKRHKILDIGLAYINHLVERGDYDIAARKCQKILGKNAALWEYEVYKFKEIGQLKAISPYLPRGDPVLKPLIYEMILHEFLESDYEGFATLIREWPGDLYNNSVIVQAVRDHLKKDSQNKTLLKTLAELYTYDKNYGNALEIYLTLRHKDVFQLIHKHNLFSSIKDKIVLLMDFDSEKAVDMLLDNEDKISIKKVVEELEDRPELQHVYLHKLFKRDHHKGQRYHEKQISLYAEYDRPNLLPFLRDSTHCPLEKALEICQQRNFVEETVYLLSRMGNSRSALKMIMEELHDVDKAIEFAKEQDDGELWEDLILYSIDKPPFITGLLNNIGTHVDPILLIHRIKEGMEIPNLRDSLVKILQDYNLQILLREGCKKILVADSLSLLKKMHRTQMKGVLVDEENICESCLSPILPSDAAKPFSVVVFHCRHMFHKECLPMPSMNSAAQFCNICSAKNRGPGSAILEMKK
Described as above. Conditions: both partners purified.

B1: GST-Rab39B (natural protein, human, UniProt Q96DA2 1-213, looked up)
chain: MEAIWLYQFRLIVIGDSTVGKSCLIRRFTEGRFAQVSDPTVGVDFFSRLVEIEPGKRIKLQIWDTAGQERFRSITRAYYRNSVGGLLLFDITNRRSFQNVHEWLEETKVHVQPYQIVFVLVGHKCDLDTQRQVTRHEAEKLAAAYGMKYIETSARDAINVEKAFTDLTRDIYELVKRGEITIQEGWEGVKSGFVPNVVHSSEEVVKSERRCLC
notes: Rab39B, human, cloned from human cDNA; unprenylated; also called GST-R39B; purified Rab39B; source: E. coli BL21 (DE3), purified (Glutathione Sepharose); not shown: GST, N-terminal, kept
As to B1, the binding result with Myc-C9orf72 and with VPS41-Flag was “binds” each time.

B2: GST-Rab39A (natural protein, human, UniProt Q14964 1-217, looked up)
chain: METIWIYQFRLIVIGDSTVGKSCLLHRFTQGRFPGLRSPACDPTVGVDFFSRLLEIEPGKRIKLQLWDTAGQERFRSITRSYYRNSVGGFLVFDITNRRSFEHVKDWLEEAKMYVQPFRIVFLLVGHKCDLASQRQVTREEAEKLSADCGMKYIETSAKDATNVEESFTILTRDIYELIKKGEICIQDGWEGVKSGFVPNTVHSSEEAVKPRKECFC
notes: Rab39A, human, cloned from human cDNA; unprenylated; also called GST-R39A; purified Rab39A; source: E. coli BL21 (DE3), purified (Glutathione Sepharose); not shown: GST, N-terminal, kept
Regarding B2, the binding result in the test with Myc-C9orf72 and with VPS41-Flag was “binds” throughout.
